In patent publication US20230391863A1 (published 2023):

Legend:
[1] = target: A109 (SEQ ID NOs: 39 & 17) (Homo sapiens (Human), UniProt P0DOX7 1-214); assay: BLI (Octet RED96), affinity-purified antagonist captured on biosensor, ligand in solution
Protocol: (§1) In this example, the human ligand binding activities of several bifunctional antagonist molecules were measured by biolayer interferometry (BLI) using Octet RED96 (FortéBIO, Pall Corporation, USA). Binding analysis was performed by capturing the polypeptide bifunctional antagonists to biosensors. To measure the rate of association and dissociation, the bifunctional antagonists-captured biosensors were dipped in wells containing different concentrations of ligands (such as TNF-α, Activin A, Activin B, Activin AB, myostatin, and GDF-11) diluted in 1× kinetic buffer for 10 min followed by 10-20 min in 1× kinetic buffer. The bifunctional polypeptide antagonists-captured sensors were also submerged in wells containing 1× kinetic buffer to allow single reference subtraction in order to compensate for natural dissociation of the captured bifunctional antagonists. The binding sensorgrams were collected using the 8-channel detection mode on the biosensor. Data were acquired and analyzed using the FortéBIO data acquisition software v11.1 (FortéBIO, Pall Corporation, USA).

[2] = target: A110 (SEQ ID NOs: 41 & 17) (Homo sapiens (Human), UniProt P0DOX7 1-214); assay: as above
Protocol: as §1

Kd [1]: ~0.52 nM | Kd [2]: ~0.16 nM
B1: human Activin A (ligand)
chain: GLECDGKVNICCKKQFFVSFKDIGWNDWIIAPSGYHANYCEGECPSHIAGTSGSSLSFHSTVINHYRMRGHSPFANLKSCCVPTKLRPMSMLYYDDGQNIIKKDIQNMIVEECGCS
modifications: Activin A is a disulfide-linked homodimer of two identical inhibin beta A chains. The chain is given once.
